In PMC5085866:
Read-outs that look alike come from different tables or passages of the source.

Experiments:
Test in all cases: AUC
[1] = target: Enterococcus faecium LiaR receiver domain (residues 1-139) (Enterococcus faecium)
[2] = target: Enterococcus faecium LiaR DNA binding domain (residues 140-210) (Enterococcus faecium)
[3] = target: Enterococcus faecium LiaR W73C, full length (Enterococcus faecium)
[4] = target: Enterococcus faecium LiaR W73C, full length (Enterococcus faecium); remark: listed apart in the source
[5] = target: Enterococcus faecium LiaR receiver domain (residues 1-139) W73C (Enterococcus faecium)
[6] = target: Enterococcus faecium LiaR receiver domain (residues 1-139) W73C (Enterococcus faecium); remark: listed apart in the source

Substance: Enterococcus faecium LiaR receiver domain (residues 1-139) (domain or fragment)
- Kd [1]: 676 µM

Substance: Enterococcus faecium LiaR DNA binding domain (residues 140-210) (domain or fragment)
- Kd [2]: 0.4 µM

Substance: Enterococcus faecium LiaR W73C, full length (natural protein)
- Kd [3]: 236 µM
- Kd [4]: 182 µM

Substance: Enterococcus faecium LiaR receiver domain (residues 1-139) W73C (domain or fragment)
- Kd [5]: 0.8 µM
- Kd [6]: 94 µM
